% Inhibition of Specific Binding data for two molecules are collected here from patent US20220315554A1, “COMPOUNDS COMPRISING A […] LIGAND AND USE THEREOF” (priority 2019, published 2022).

Bridge positions count the residues as written; N and C are the ends. * marks the point of attachment. tMeBn(DOTA-AET) = Cys-Cys bridge (thioethers) carrying DOTA-AET; tMeBn(DOTA-PP) = Cys-Cys bridge (thioethers) carrying DOTA-PP; Hexanoyl = CCCCCC(=O)*

Test in all cases: radioligand displacement, 10 uM compound
Common to all, as to settings: remark: other sources report otherwise
Background: Loss of bound radioactivity is the signal in a displacement assay; it reports binding, not function.

The target in test [1] is T1, AR (h) (human (printed (h))), P10275.
T1 chain: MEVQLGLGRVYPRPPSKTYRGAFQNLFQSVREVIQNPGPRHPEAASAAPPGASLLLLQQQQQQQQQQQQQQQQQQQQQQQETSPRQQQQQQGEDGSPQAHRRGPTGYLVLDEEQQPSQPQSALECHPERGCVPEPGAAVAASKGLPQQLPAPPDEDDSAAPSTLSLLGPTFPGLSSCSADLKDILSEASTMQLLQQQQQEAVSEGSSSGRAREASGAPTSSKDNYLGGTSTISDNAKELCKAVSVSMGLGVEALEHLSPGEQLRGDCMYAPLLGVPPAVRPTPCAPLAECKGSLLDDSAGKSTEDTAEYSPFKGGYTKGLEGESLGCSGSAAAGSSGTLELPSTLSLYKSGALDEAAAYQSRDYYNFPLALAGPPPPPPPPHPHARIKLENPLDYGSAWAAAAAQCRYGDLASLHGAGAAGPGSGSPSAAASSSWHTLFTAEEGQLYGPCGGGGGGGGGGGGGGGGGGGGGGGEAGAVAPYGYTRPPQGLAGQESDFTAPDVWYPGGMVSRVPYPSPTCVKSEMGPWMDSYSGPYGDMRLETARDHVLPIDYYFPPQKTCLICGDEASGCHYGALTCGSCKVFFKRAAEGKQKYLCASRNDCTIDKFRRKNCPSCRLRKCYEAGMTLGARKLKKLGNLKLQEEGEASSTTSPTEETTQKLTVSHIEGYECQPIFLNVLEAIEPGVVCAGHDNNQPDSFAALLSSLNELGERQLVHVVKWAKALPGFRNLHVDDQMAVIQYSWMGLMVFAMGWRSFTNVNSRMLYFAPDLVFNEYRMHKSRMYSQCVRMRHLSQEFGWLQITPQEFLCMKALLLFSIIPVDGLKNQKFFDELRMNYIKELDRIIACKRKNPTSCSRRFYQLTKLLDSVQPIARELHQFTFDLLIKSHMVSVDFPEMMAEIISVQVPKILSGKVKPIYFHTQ

Test [2] addresses T2, CCK1 (CCKA) (h) (human (printed (h))), P32238.
T2 chain: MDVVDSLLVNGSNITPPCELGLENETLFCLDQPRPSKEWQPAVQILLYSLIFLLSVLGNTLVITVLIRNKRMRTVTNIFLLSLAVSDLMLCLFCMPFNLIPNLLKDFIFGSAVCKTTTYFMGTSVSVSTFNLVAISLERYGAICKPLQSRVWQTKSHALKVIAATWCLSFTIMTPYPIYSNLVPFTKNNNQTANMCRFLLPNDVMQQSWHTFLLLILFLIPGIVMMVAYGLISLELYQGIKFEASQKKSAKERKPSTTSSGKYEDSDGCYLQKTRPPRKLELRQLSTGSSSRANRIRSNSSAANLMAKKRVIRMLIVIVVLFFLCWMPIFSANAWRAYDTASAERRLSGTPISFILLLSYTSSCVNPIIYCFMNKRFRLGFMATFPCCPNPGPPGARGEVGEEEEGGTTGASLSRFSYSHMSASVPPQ

Test [3] addresses T3, D2S (h) (human (printed (h))), P14416.
T3 chain: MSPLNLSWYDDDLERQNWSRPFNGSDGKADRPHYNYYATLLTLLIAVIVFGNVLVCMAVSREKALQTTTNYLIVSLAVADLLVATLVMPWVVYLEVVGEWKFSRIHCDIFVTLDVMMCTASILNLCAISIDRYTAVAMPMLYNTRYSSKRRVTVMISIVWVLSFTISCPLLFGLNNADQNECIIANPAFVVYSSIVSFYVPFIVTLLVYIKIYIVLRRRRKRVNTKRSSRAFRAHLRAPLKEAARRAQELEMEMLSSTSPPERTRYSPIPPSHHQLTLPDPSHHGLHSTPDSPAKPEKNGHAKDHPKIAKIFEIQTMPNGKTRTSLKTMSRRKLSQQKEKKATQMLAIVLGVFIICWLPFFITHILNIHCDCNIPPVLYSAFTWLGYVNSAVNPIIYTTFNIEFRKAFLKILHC

Test [4] addresses norepinephrine transporter (h) (human (printed (h))), P23975.
In test [5] the target is T4, A2A (h) (human (printed (h))), P29274.
T4 chain: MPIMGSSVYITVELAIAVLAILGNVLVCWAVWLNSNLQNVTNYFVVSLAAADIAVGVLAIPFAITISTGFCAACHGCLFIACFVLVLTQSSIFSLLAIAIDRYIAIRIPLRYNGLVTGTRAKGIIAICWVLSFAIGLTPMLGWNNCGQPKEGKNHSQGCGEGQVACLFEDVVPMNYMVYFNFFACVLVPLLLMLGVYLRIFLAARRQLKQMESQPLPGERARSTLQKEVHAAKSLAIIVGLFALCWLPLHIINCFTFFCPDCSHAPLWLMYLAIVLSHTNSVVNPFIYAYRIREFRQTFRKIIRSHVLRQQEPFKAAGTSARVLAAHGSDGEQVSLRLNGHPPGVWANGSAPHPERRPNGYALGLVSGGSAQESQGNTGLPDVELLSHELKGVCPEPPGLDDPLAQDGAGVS

For test [6], the target named is T5, ETA (h) (human (printed (h))), P25101.
T5 chain: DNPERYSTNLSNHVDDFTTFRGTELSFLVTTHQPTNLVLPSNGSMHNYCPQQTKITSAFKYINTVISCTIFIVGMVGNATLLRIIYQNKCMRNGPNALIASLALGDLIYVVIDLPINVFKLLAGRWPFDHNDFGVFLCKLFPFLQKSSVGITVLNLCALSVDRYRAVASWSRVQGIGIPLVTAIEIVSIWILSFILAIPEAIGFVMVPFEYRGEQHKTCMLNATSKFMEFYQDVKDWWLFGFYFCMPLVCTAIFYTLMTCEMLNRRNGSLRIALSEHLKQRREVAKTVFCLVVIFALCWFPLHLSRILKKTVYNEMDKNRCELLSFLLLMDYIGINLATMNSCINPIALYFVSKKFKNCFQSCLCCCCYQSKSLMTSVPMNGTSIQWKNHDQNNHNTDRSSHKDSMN

Substrate in test [7]: N neuronal alpha 4beta 2 (h) (human (printed (h))), P43681
The target in test [8] is 5-HT2B (h) (human (printed (h))), P41595.

Turning to Hexanoyl-CPPTQFC-OH (linker 1-7 via tMeBn(DOTA-AET)) [Hex-[Cys(tMeBn(DOTA-AET))-Pro-Pro-Thr-Gln-Phe-Cys]-OH (3BP-3554)], the % Inhibition of Specific Binding in test [1] is -5%; in test [2], 16%; in test [3] it was -7%; in test [4], -5%; in test [5] it was -16%; in test [6], 6%. The % Inhibition of Specific Binding in test [7] was -2%; in test [8], 3%.
In the case of Hexanoyl-CPPTQFCD-NH2 (linker 1-7 via tMeBn(DOTA-PP)) [Hex-[Cys(tMeBn(DOTA-PP))-Pro-Pro-Thr-Gln-Phe-Cys]-Asp-NH2 (3BP-3407)], the % Inhibition of Specific Binding was 3% in test [1]; 24% in test [2]; 15% in test [3]; -8% in test [4]; -4% in test [5]; -18% in test [6]. For the same molecule, the % Inhibition of Specific Binding was -8% in test [7] and 2% in test [8].
